Laboratory results published in patent publication US20210261685A1 (Alector, published 2021).

T1: Recombinant human MerTK human Fc Chimera protein (R&D systems, Cat #391-MR-100) (human, UniProt Q12866 26-499, limits assumed)
T1 construct: Bought; also called recombinant human MerTK protein; MerTK-Fc
T1 sequence: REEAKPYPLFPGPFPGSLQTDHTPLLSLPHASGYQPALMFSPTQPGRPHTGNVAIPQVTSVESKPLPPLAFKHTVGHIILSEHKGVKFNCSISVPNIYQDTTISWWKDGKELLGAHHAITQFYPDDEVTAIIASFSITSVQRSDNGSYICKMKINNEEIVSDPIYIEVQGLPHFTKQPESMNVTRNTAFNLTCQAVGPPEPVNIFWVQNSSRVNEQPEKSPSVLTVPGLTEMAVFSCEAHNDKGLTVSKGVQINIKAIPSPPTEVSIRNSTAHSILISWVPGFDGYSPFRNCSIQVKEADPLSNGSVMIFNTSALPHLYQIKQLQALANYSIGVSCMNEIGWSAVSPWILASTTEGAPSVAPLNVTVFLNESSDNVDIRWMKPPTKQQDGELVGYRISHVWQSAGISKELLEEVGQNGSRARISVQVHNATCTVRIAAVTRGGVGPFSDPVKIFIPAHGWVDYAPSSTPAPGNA

T2: cyno MerTK extracellular domain (ECD), recombinant (cynomolgus monkey, UniProt Q12866 21-505 (human entry))
T2 construct: also called cynomolgus MerTK; not shown: polyHis tag or TEVS/Thrombin/murine IgG2a Fc tag
T2 chain: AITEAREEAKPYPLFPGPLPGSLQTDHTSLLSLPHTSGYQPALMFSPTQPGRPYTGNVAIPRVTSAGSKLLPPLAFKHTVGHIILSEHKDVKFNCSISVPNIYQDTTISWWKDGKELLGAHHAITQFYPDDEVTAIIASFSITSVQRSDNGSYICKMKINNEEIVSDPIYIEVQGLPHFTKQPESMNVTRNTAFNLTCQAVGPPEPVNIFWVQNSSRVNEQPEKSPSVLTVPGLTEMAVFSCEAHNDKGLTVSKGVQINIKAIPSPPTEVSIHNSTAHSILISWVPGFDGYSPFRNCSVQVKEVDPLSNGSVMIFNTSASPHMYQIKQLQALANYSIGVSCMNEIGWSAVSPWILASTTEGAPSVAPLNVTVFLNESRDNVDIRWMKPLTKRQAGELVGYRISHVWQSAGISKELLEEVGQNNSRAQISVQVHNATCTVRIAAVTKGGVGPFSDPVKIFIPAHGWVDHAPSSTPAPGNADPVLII


Tests used:
[1] = molecular target: T1, Recombinant human MerTK human Fc …; assay: competition ELISA, His-ProS on captured MerTK-Fc
Experimental: Rabbit anti-human IgG polyclonal antibody (Jackson ImmunoResearch, Cat #309-005-008) was captured to a high-protein binding plate at 2 μg/ml 4° C. overnight. After washing with 0.05% Tween20 in PBS three times, 5% BSA in PBS was added for 1 hour. Recombinant human MerTK human Fc Chimera protein (R&D systems, Cat #391-MR-100) was added at 2 μg/ml for 1 hour and the plates were then washed. Anti-MerTK antibodies were titrated to final concentration range of between 66.6 nM to 4 pM and then 40 μl of serially diluted antibody and 40 μl of His tag-conjugated recombinant Gas6 protein (R&D systems, Cat #885-GSB-050) at 3 μg/ml or His tag-conjugated recombinant ProS protein (R&D systems, Cat #9489-PS-100) at 20 μg/ml. After a further incubation for 1 hour, plates were washed and incubated for 1 hour with HRP-conjugated anti-6×His tag antibody (Abcam, Cat #ab1187). Plates were then washed and an HRP substrate (TMB) was used to develop the plates. After sufficient color change was observed, the reaction was stopped by adding 50 μl 2N H₂SO₄ and the OD was measured using a spectrophotometer (BioTek).
From these experiments, IC50 values [nM] were determined using OD450 values obtained from the dose-response curves analyzed with Prism software. Table 14 and Table 15 show IC50 values determined for anti-MerTK antibody blocking of Gas6 ligand binding and ProS ligand binding to MerTK. […] Dashes indicate lack of significant blocking; “n.a.” indicates data not available.

[2] = molecular target: T2, cyno MerTK extracellular domain (ECD), …; assay: SPR, Carterra LSA, antibody immobilised
Experimental: Binding kinetics of human anti-MerTK IgG1 LALAPS antibodies of the present disclosure to human, cyno, and murine MerTK were evaluated using a Carterra LSA instrument (Carterra, Salt Lake City, Utah). Briefly, anti-MerTK antibodies were prepared by diluting to 10 μg/ml in 10 mM Acetate, pH 4.25 (Carterra), at 300 μl/well. A HC200M sensor chip (Carterra) was activated using the single channel flow cell with a 7-minute injection of a 1:1:1 mixture of 100 mM MES pH 5.5, 100 mM sulfo-NHS, 400 mM EDC (all reconstituted in MES pH 5.5; 100 μl of each mixed in vial immediately before running assay). After switching to the multi-channel array flow cell, the antibodies were injected over the activated chip in a 96-spot array for 15 minutes. The remaining unconjugated active groups on the chip were then blocked by injecting 1M Ethanolamine pH 8.5 (Carterra) for 7 minutes using the single channel flow cell.
After priming with running buffer (HBS-TE, Carterra) with 0.5 mg/ml BSA (Sigma), the immobilized anti-MerTK antibodies were tested for their ability to bind to several forms of recombinant MerTK extracellular domain, including human, cynomolgus, and mouse orthologs as described above. Estimates of affinity were generated by injecting each analyte over the entire antibody array using the single channel flow cell. MerTK analytes were diluted to 33.3, 100, and 300 nM in running buffer, and injected in serial from lowest to highest concentration without regeneration. Two buffer blanks were run between each series (one species per series). Data were processed and analyzed using NextGenKIT high-throughput kinetics analysis software (Carterra).
The equilibrium dissociation constants (KD) were then calculated from the fitted association and dissociation rate constants (k-on and k-off) for anti-MerTK antibodies of the present disclosure. Binding kinetic analysis was also performed on anti-MerTK antibodies H1 (BioLegend, Clone ID: 590H11G1E3), H2 (R&D systems, Clone ID: 125518), M6 (WO2016/106221), and CDX AB2000-A7 hIgG1 (WO2019/084307).

Binder | IC50 [1] [nM] | Kd [2] [nM] | binding result [2]
MTK-03 (antibody, human IgG1, V domains shown) VH: DVQLQESGPGLVKPSQSLSLTCSVTGYSITSGYYWNWIRQFPGNTLEWMGYMSFDGDNKFNPSLKNRISITRDTSKNQFFLRLNSVTTEDTATYYCARGGYNYGSTEANWGQGTLVTVSA VL: QIVLTQSPAIMSAFPGEKVTITCSASSSVNYMHWFQQKPGTSPKLWIYSTSNLASGVPARFSGSGSGTSYSLTISRMEAEDAATYYCQQRSSYPFTFGSGTKLEIK | 3.65 | 55 | 
MTK-31 (antibody, human IgG1, V domains shown) VH: QIQLVQSGPELKKSGETVKISCKASGYTFTSYGMSWVKQAPGKGLKWMGWINTYSGVPTYADDFKGRFAFSLETSASTAYLQINNLKNEDTATYFCASLSYDGSLYHAMDYWGQGTSVTVSS VL: DVSMTQTPLSLPVSLGDQASISSRSSQTIVHSNGNTYLEWYLQKPGQSPKLLIYKVSNRFSGVPDRFSGSGSGTDFTLKISRVEAEDLGVYYCFQGSHVPWTFGGGTKLEIK |  | 91 | 
MTK-01 (antibody, human IgG1, V domains shown) VH: QIQLVQSGPELKKPGETVKISCKASGYTFTNYGMNWVKQAPGKGLKCMGWINTYTGEPTYADDFKGRFAFSLETSATTAYLQINNLKNEDTATYFCARRDRYTWFAYWGQGTLVTVSA VL: QIVLSQSPAILSASPGEKVTMTCRASSSVSYMHWYQQKPGSSPKPWIYATSNLASGVPARFSGSGSGTSYSLTISRVEAEDAATYYCQQWSSNPPTFGGGTKLEIK | 2.85 | 99 | 
MTK-04 (antibody, human IgG1, V domains shown) VH: QIQLVQSGPELKKPGETVKISCKASGYTFTNYGMNWVKQAPGKGLKCMGWINTYTGEPTYADDFKGRFAFSLETSASTAYLQINNLKNEDMATYFCAKYDNYAWFAYWGQGTLVTVSA VL: QIVLSQSPAFLSASPGEKVTMTCRASSSVSYMHWYLQKPGSSPKPWIYATSNLASGVPVRFSGSGSGTSYSLTISRVEAEDAATYYCQQWSSNPRTFGGGTKLEIR | 12.8 | 44 | 
MTK-20 (antibody, human IgG1, V domains shown) VH: QIQLVQSGPELKKPGETVKISCKASGYTFTNYGMTWVKQAPGKGLKWMGWINTYTGEPTYADDFKGRFALSLETSASTAYLQINNLKNEDTATYFCARGGGRLGLRPLDYWGQGTTLTVSS VL: DIQMTQTTSSLSASLGDRVTISCRASQDINNYLNWYQQKPDGTVKLLIYYTSRLHSGVPSRFSGSGSGTDYSLTISNLEQEDIATYFCQQGNTLPWTFGGGTKLEIK | 5.16 | 9.2 | 
MTK-21 (antibody, human IgG1, V domains shown) VH: QIQLVQSGPELKKPGETVKISCKASGYTFTNFGMTWVRQAPGMDLKWMGWINTYTGEPKYADDFKGRFALSLETSASTAYLQITNFKNEDTATYFCARGGGRLGLRPLDYWGQGTTLTVSS VL: DIQMTQTTSSLSASLGDRVTISCRASQDINNYLNWYQQKPDGTVKLLIYYTSSLHSGVPSRFSGSGSGTDYSLTITNLEQEDIATYFCQQGNTLPWTFGGGTRLEIK | 13.5 | 43 | 

The next lines start with the values.

IC50 [1] [nM] | Kd [2] [nM] | binding result [2] | Binder
8.35 | 24 |  | MTK-17 (antibody, human IgG1, V domains shown) VH: QIQLVQSGPELKKPGETVKISCKASGYTFTNFGMNWVKQAPGKGLKWMGWINTYTGEPTYADDFKGRFAFSLETSASTAYLQINNLKNEDTATYFCSRGAVLRAGAMDCWGQGTSVTVSS VL: DIQMTQSSSYLSVSLGGRVTITCKASDHINNWLAWYQQKPGNAPRLLISGATSLETGVPSRFSGSGSGKDYTLSITSLQTEDVATYYCQQYWSTPRTFGGGTKLEIK
6.51 |  | no binding (tested: 300 nM) | MTK-05 (antibody, human IgG1, V domains shown) VH: QVQLQQSGAELVQPGTSVRLSCKTSGYTFTSYWIQWVKQRPGQGLGWIGEIFPGTGTTYYNEKFKGKATLTIDTSSSTAYMQLSSLTSEDSAVYFCARDGAYFDVWGAGTTVTVSS VL: DIQMTQSPASLSASVGETVTFTCRASENIFSYLAWYQQKQGKSPQLLVYNAKTLAEGVPSRFSGSGSGTHFSLKINSLQPEDFGSYYCLHHYGTPLTFGAGTKLELK
3.27 | 53 |  | MTK-07 (antibody, human IgG1, V domains shown) VH: DVQLQESGPGLVKPSQSLSLTCSVTGYSITSGYYWNWIRQFPGNTLEWMGYMSFDGDNKFNPSLKNRISITRDTSKNQFFLRLNSVTTEDTATYYCARGGYNYGSTEANWGQGTLVTVST VL: QIVLTQSPAIMSAFPGEKVTITCSASSSVTYMHWFQQKPGTSPKLWIFSTSNLASGVPARFSGSGSGTSYSLTISRMEAEDAATYYCQQRSSYPFTFGSGTKLEIK
11.3 | 12 |  | MTK-19 (antibody, human IgG1, V domains shown) VH: EVQLQQSGPELVKPGASVKISCKTSGYTFTEYTMHWVKQSHGKSLEWLGGFNPNNVITSYNQRFQGRATLTVDKSSSTAYMELRSLTSDDSAVYYCTRGDLLWSLLLPGNYFDYWGQGTTLTVSS VL: not shown
2.66 |  |  | MTK-29 (antibody, human IgG1, V domains shown) VH: QIQLVQSGPELKKPGETVKISCKSSGFTFTTYGMSWVKQAPGKGLKWMGWINTYSGVPTYTDDFKGRFAFSLETSASTASLQINNLKNEDTATYFCARYTNYGYFDYWGQGTTLTVSS VL: QIVLSQSPAILSASPGEKVTMTCRATSSVGYMHWYQQKPGSSPKPWIYATSNLASGVPARFSGSGSGTSYSLTISRVEAEHAATYYCQQWGSNPFTFGSGTKLEIK
4.76 | 18 |  | MTK-18 (antibody, human IgG1, V domains shown) VH: QIQLVQSGPELKKPGETVKISCKASGYTFTHYGMTWVKQAPGKGLKWMGWINTYTGEPTYADDFKGRFAFSLETSASTAYLQINNLKNEDTATYFCARGGGQLGLRPLDYWGQGTTLTVSS VL: DIQMTQTTSSLSASLGDRVTFSCRASQAISNYLNWYQQKPDGTVKLLIYYTSRLHSGVPSRFSGSGSGTDYSLTISNLEQEDIATYFCQQGNTLPWTFGGGTKLEIK
0.601 | 6.6 |  | MTK-33 (antibody, human IgG1, V domains shown) VH: QVQLQQPGPELVRPGTSVKLSCKASGYTFTSYWMHWIKQRPGQGLEWIGVIDPSDNYINYNQKFKGKATLTVDTSSSTAYLQLSSLTSEDSAVYYCAREAGTRGYFDYWGQGTTLTVSS VL: SIVMTQTPKFLLVSAGDRVIITCKASQSVSNTVAWYQQKPGQSPKLLIYYASNRYTGVPDRFTGSGYGTDFTFTISTVQAEDLAVYFCQQDYRSPFTFGSGTQLEMK
